The results in this text go back to PMC11878764, “MaEIL4-MaMADS36-MaACS7 module transcriptionally regulates ethylene biosynthesis during banana fruit ripening”.

This series addresses MaMADS36 (Musa spp. (banana), UniProt A0ACE1XRG1 54-288). Description: EMSA; Not given in material; EMSA according to Liu et al. [22]. To be noted: protein: recombinant; chain copies: 2. A general note: In EMSA bound probe runs differently from free probe, usually more slowly.

Sequence of MaMADS36 (A0ACE1XRG1 entry or part of it): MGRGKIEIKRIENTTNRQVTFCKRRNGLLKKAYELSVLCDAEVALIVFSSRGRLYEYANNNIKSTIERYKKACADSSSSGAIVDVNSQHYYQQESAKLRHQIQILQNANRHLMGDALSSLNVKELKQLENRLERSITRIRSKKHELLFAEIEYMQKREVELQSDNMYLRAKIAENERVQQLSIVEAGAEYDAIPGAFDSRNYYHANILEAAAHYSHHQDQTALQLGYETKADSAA

B1: MaACS7 promoter C(A/T)rG probe (dsDNA)
DNA 1: GTTTCTTTTTTGGT
DNA 2: ACCAAAAAAGAAAC
As for B1, the binding result is “binds”.
